Read-outs that look alike come from different tables or passages of the source. One block for each binder: values may come before it.
What was measured:
[1] = target: T1, human HIDE1-flag (human, UniProt A8MVS5 20-230); assay: FACS, HEK293 human HIDE1 Flag cells vs HEK293 empty vector, goat anti-human IgG F(ab')2-PE
T1 construct: Over-expressed on HEK293, SK-MEL-5, CHO-S and CHO-S OKT3 cells (pMSCV or pcDNA3.1); whole cell extracts in WB; Entry includes the signal peptide; also called hHIDE1 Flag
T1 sequence: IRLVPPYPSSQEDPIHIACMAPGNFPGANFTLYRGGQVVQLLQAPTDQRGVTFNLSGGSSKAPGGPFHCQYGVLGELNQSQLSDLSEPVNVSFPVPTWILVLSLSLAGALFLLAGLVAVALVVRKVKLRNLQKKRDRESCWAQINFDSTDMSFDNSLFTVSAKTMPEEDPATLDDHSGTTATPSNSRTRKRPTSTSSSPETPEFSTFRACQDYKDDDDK

[2] = target: T2, HIDE1_HH-1 (Human ECD + human IgG1 Fc mutated C220S at hinge), without SP (human); assay: BLI Octet RED384, bivalent Fab-A-FH
T2 construct: Batch #280 in the Serotec and phage display work; also called HIDE1 hECD-hIg; HIDE1 (H:H) recombinant Fc fusion protein

[3] = target: T2, HIDE1_HH-1 (Human ECD + human IgG1 Fc …); assay: SPR (ProteOn XPR 36): HIDE1-HH-1 captured on goat anti-human Fc GLC chip, Fab periplasmic extract injected 2 min, undiluted and 3-fold dilutions, 10 min dissociation
Description: A high density goat anti-human Fc antibody (Invitrogen) was immobilized by standard amine coupling over all lanes of a GLC chip using a ProteOn XPR 36 biosensor (Biorad). This surface was used to capture the recombinant HIDE1-H:H fusion protein (GenScript Lot 393383-21, batch #280) or a control Fc fusion protein (CD155, Sino Biologicals) in the vertical flow-cell direction at a concentration of ˜0.5 μg/mL for 90 seconds.
Each anti-HIDE1 Fab PPE sample was then injected at three concentrations (undiluted fab supernatant and two three-fold serial dilutions) in the horizontal direction over the captured fusion proteins. The dilutions were made using degassed PBS with 0.05% Tween 20 and 0.01% BSA. PPEs were injected for two minutes followed by 10 minutes of dissociation at a flow rate of 50 μL/min. The starting concentration range for each Fab is recorded in Table 39. The anti-human fc capture surfaces were regenerated with two 30-second pulses of 146 mM phosphoric acid after each cycle.

[4] = target: T3, human HIDE1 (human, UniProt A8MVS5 20-230); assay: FACS, CD14+ cells of human PBMCs, Alexa 647 conjugate
T3 construct: Endogenous on U937, HL-60, THP-1 cells, blood monocytes, AML blasts and dendritic cells; also called C19orf38; hHIDE1
T3 sequence: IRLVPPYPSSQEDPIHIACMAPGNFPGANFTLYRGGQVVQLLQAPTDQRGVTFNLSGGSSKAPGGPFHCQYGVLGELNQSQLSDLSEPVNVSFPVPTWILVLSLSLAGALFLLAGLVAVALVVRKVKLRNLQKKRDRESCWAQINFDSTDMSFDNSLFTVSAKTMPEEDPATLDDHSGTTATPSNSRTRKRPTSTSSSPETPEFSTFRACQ
Description: The following antibodies were used. […] Brilliant violet 510 labeled anti-CD3 (Biolegend, cat. 344828), PE-labeled anti-CD14 (Biolegend, cat. 301806) and PercP-labeled anti-CD19 (Biolegend, cat. 302228).
PBMCs cells were thawed and stained with viability dye (BD Horizon; Cat#562247, BD biosciences), washed and pre-blocked with Fc blocking solution (cat#422302, Biolegend; 1:20) and/or human Ig Fc (Jackson; 200 μg/ml; cat#009-000-008) to avoid nonspecific binding via Fc receptors. Cells were then stained with anti-hHIDE1 mAbs or mIgG1 isotype control in the presence or absence of lymphocytes or monocytes surface marker. All samples were run on a MACSQuant analyzer (Miltenyi) and data was analyzed using Tree Star FlowJo software. Cells were first gated for lymphocytes or monocyte (FSC-A vs. SSC-A), and further gated for live cells before analyzed for HIDE1 expression by flow cytometry.

[5] = target: T3, human HIDE1; assay: FACS, HL-60 cells
[6] = target: T3, human HIDE1; assay: FACS, HL-60 cells transfected with scrambled siRNA
[7] = target: T3, human HIDE1; assay: FACS, HL-60 cells transfected with HIDE1 siRNA
[8] = target: T3, human HIDE1; assay: FACS, U937 cells transfected with HIDE1 siRNA
[9] = target: T3, human HIDE1; assay: FACS, U937 cells transfected with scrambled siRNA
[10] = target: T3, human HIDE1; assay: FACS, THP1 cells
[11] = target: T3, human HIDE1; assay: FACS, U937 cells
[12] = target: T3, human HIDE1; assay: FACS, THP1 cells transfected with HIDE1 siRNA, AF647 conjugate
Description: Confirmation of HIDE1 endogenous expression was also tested in THP1 cells transfected with HIDE1 siRNA as described in M&M section. Analysis of human HIDE1 membrane expression in the siRNA transfected cells was performed by FACS. As shown in FIG. 31 membrane expressions of human HIDE1 protein is reduced in cells transfected with HIDE1 siRNA (green) as compared to cells transfected with scrambled siRNA (orange).

[13] = target: T4, mouse HIDE1 Flag (mouse, UniProt Q75VT8 22-222); assay: Western blot of whole cell extracts, goat anti-mouse HRP
T4 construct: Over-expressed on HEK293 and EL4 cells (pMSCV); whole cell extracts in WB; also called mHIDE1 flag; not shown: Flag tag
T4 sequence: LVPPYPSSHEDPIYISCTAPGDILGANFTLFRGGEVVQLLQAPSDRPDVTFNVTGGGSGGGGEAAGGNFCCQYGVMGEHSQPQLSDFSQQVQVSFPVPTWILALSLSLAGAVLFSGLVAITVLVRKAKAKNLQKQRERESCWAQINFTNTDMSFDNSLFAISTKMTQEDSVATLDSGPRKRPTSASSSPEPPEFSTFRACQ

[14] = target: T4, mouse HIDE1 Flag; assay: as above; remark: listed apart in the source

T2 sequence (chain, as listed by the source C220S C220S limits assumed): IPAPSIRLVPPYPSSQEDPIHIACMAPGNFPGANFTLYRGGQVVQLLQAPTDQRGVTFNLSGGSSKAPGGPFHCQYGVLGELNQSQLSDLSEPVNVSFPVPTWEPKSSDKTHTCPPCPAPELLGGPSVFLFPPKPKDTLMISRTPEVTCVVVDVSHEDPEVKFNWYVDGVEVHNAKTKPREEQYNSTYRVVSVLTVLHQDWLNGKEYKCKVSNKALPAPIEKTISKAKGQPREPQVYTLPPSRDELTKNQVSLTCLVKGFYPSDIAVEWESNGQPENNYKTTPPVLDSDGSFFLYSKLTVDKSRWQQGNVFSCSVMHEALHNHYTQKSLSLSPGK

B1: αhHIDE1_AbD25754.1_Ser_Fab (Fab)
heavy: QVQLVQSGAEVKKPGASVKVSCKASGYTFSGYGMHWVRQAPGQGLEWMGIISPSNGNTNYAQKFQGRVTMTRDTSISTAYMELSRLRSEDTAVYYCAREVYYGLDVWGQGTLVTVSSASTKGPSVFPLAPSSKSTSGGTAALGCLVKDYFPEPVTVSWNSGALTSGVHTFPAVLQSSGLYSLSSVVTVPSSSLGTQTYICNVNHKPSNTKVDKKVEPKSEFKAEMPVLENRAAQGDITTPGGARRLTGDQTAALRDSLSDKPAKNIILLIGDGMGDSEITAARNYAEGAGGFFKGIDALPLTGQYTHYALNRKTGKPDYVTSSAASATAWSTGVKTYNGALGVDIHEKDHPTILEMAKAAGLATGNVSTAELQDATPAALVAHVTSRKCYGPSATSEKCPGNALEKGGKGSITEQLLNARADVTLGGGAKTFAETATAGEWQGKTLREQAQARGYQLVSDAASLNSVTEANQQKPLLGLFADGNMPVRWLGPKATYHGNIDKPAVTCTPNPQRNDSVPTLAQMTDKAIELLSKNEKGFFLQVEGASIDKQDHAANPCGQIGETVDLDEAVQRALEFAKKEGNTLVIVTADHAHASQIVAPDTKAPGLTQALNTKDGAVMVMSYGNSEEDSQEHTGSQLRIAAYGPHAANVVGLTDQTDLFYTMKAALGLKGAPDYKDDDDKGAPHHHHHH
light: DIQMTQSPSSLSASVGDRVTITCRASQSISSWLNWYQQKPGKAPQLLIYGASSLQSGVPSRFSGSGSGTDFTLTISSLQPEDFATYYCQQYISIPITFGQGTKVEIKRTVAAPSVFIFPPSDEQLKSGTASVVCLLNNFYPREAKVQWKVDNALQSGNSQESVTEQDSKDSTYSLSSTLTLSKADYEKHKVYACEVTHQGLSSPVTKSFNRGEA
modifications: Fab-A-FH format: the Fd chain carries bacterial alkaline phosphatase (which dimerises it, making the Fab bivalent), then FLAG and His6; all of these are in the letters.
notes: Serotec HuCAL Fab-A-FH; also called Ab332
FACS analysis (GeoMean fold) human HIDE1/empty vector [1]: 145 fold
Kd [2]: 0.1 nM
koff [2]: 6.09e-05 s⁻¹

B5: Mouse anti human HIDE1 mAb (Biotem #39A7-3A10-3G8) (antibody, mouse IgG1, kappa, V domains shown)
VH: QVQLQQSGAELVRPGASVKLSCKALGYTFTDYEMHWVKQTPVHGLEWIGDIYPGSGGTAYNQKFKGKATLTADKSSSTAYMELSSLTSEDSAVYYCTRKGRSFAYWGQGTLVTVSA
VL: NIVMTQSPKSMSMSVGERVTLSCKASENVDTYVSWYQQKPEQSPKLLIYGASNRYTGVPDRFTGSGSATDFTLIISSVQAEDLADYHCGQSYRYPLTFGAGTKLELKR
notes: Mouse IgG1; also called 39A7-39A10-3G8
binding result [14]: no binding (tested: 2 µg/ml)

Further lines, results first:

FACS analysis (GeoMean fold) human HIDE1/empty vector [1]: 150 fold
Kd [2]: 0.07 nM
koff [2]: 4.45e-05 s⁻¹
B2: αhHIDE1_AbD25753.1_Ser_Fab (Fab)
heavy: EVQLVQSGAEVKKPGESLKISCKGSGYSFTNYWIHWVRQMPGKGLEWMGIIDPGNSFTRYSPSFQGQVTISADKSISTAYLQWSSLKASDTAMYYCARGDGLYGGSDGYSMGGFDNWGQGTLVTVSSASTKGPSVFPLAPSSKSTSGGTAALGCLVKDYFPEPVTVSWNSGALTSGVHTFPAVLQSSGLYSLSSVVTVPSSSLGTQTYICNVNHKPSNTKVDKKVEPKSEFKAEMPVLENRAAQGDITTPGGARRLTGDQTAALRDSLSDKPAKNIILLIGDGMGDSEITAARNYAEGAGGFFKGIDALPLTGQYTHYALNRKTGKPDYVTSSAASATAWSTGVKTYNGALGVDIHEKDHPTILEMAKAAGLATGNVSTAELQDATPAALVAHVTSRKCYGPSATSEKCPGNALEKGGKGSITEQLLNARADVTLGGGAKTFAETATAGEWQGKTLREQAQARGYQLVSDAASLNSVTEANQQKPLLGLFADGNMPVRWLGPKATYHGNIDKPAVTCTPNPQRNDSVPTLAQMTDKAIELLSKNEKGFFLQVEGASIDKQDHAANPCGQIGETVDLDEAVQRALEFAKKEGNTLVIVTADHAHASQIVAPDTKAPGLTQALNTKDGAVMVMSYGNSEEDSQEHTGSQLRIAAYGPHAANVVGLTDQTDLFYTMKAALGLKGAPDYKDDDDKGAPHHHHHH
light: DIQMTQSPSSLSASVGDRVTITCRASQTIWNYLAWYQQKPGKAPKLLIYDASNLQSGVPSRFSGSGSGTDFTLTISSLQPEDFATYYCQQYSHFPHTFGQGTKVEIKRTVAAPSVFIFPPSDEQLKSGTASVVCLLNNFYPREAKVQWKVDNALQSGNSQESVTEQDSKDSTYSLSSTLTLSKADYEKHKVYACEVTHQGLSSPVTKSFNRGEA
notes: Serotec HuCAL Fab-A-FH

binding result [3]: binds
B3: B09 S404-01.C08 (Fab, V domains shown)
VH: QVQLVESGGGVVQPGRSLRLSCAASGFTFSSYAMHWVRQAPGKGLEWVAVISYDGSNKYYADSVKGRFTISRDNSKNTLYLQMNSLRAEDTAVYYCARSSGSSWSNIAYWGQGTLVTVSS
VL: QSVLTQPPSVSGAPGQRVTISCIGSSSNIGAGYDVHWYRQLPGTAPKLLIYDNTNRPSGVPDRFSASKSGISASLAITGLQAEDEADYYCQSYDSNLSGVFGGGTQLTVL
notes: Fab form of CPA.12.012 (IgG4 form is m55); complex kinetics; copies: 1 + 1

staining, folds over isotype control [4]: ~3 fold
FACS (fold change from isotype) [5]: 4 fold
fold change (anti HIDE1 vs. isotype control) [6]: 5.2 fold
fold change (anti HIDE1 vs. isotype control) [7]: 3 fold
fold change (anti HIDE1 vs. isotype control) [8]: 7 fold
fold change (anti HIDE1 vs. isotype control) [9]: 17.7 fold
FACS (fold change from isotype) [10]: 3 fold
FACS (fold change from isotype) [11]: 14 fold
fold change (anti HIDE1 vs. isotype control) [12]: 1.9 fold
binding result [13]: no binding (tested: 2 µg/ml)
B4: Mouse anti human HIDE1 mAb (Biotem #33B4-2F7) (antibody, mouse IgG1, kappa, V domains shown)
VH: QIQLVQSGPELKKPGETVKISCKASGYTFTNYGMNWVKQAPGKGLKWMGWINTYTGEPTYADDFKGRFAFSLETPASTAYLQINNLKNEDMATYFCVREHFYALDYWGQGTSVTVSS
VL: KIVLTQSPASLAVSLRQRATISCRASESVDSYGNSFMHWYQQKPGQPPKLLIYRASNLESGVPARFSGSGSRTDFTLTIDPVEADDAATYYCQQSNEDPRTFGGGTKLEIKR
notes: Mouse IgG1; also called Ab-364
